How the values were obtained:
Assay in all cases: cell-based or functional assay
[1] = target: HIV-1 MGRM-C-028 envelope glycoprotein (Env) on pseudovirus (HIV-1 isolate MGRM-C-028 (clade C))
[2] = target: HIV-1 93IN905 envelope glycoprotein (Env) on pseudovirus (HIV-1 isolate 93IN905 (clade C))
[3] = target: HIV-1 Env of isolate Du172 (clade C pseudovirus) (HIV-1)
[4] = target: HIV-1 JR-FL Env E168K (HIV-1 JR-FL)
[5] = target: MuLV envelope protein (control pseudovirus) (MuLV)
[6] = target: HIV-1 Env of isolate MGRM-F1-004 (HIV-1)
[7] = target: HIV-1 Env of pseudovirus MGRM-AG-009 (subtype AG) (HIV-1)
[8] = target: HIV-1 Env of pseudovirus MGRM-AE-007 (subtype AE) (HIV-1)
[9] = target: HIV-1 Env of isolate MGRM-F1-008 (HIV-1)
[10] = target: HIV-1 Env of pseudovirus MGRM-AG-008 (subtype AG) (HIV-1)
[11] = target: HIV-1 Env of pseudovirus MGRM-AG-001 (subtype AG) (HIV-1)
[12] = target: HIV-1 MGRM-A-010 Env (HIV-1)
HIV-1 APV6 Env (HIV-1) = target: HIV-1 APV6 Env (HIV-1)
aMLV envelope (aMLV) = target: aMLV envelope (aMLV)
[13] = target: HIV-1 92BR020 Env (HIV-1)
[14] = target: HIV-1 MGRM-D-018 Env (HIV-1)
[15] = target: HIV-1 92RW020 Env (HIV-1)
[16] = target: HIV-1 MGRM-AG-005 Env (HIV-1)
[17] = target: HIV-1 Env of isolate MGRM-Chronic-B-011 (HIV-1)
[18] = target: HIV-1 Env of pseudovirus 92UG037 (subtype A) (HIV-1)
[19] = target: HIV-1 Env of isolate JRFL (HIV-1)
[20] = target: HIV-1 Env of isolate MG RM-D-001 (clade D), on pseudovirus (HIV-1)
[21] = target: HIV-1 Env of isolate MGRM-F1-023 (clade F pseudovirus) (HIV-1)
[22] = target: HIV-1 Env of isolate MGRM-F1-014 (clade F), on pseudovirus (HIV-1)
[23] = target: HIV-1 Env of pseudovirus MGRM-A-004 (subtype A) (HIV-1)
[24] = target: HIV-1 CMU02 Env (pseudovirus) (HIV-1 isolate CMU02 (clade AE))
[25] = target: HIV-1 MGRM-AG-005 Env (pseudovirus) (HIV-1 isolate MGRM-AG-005 (clade AG))
[26] = target: aMLV envelope (control pseudovirus) (aMLV)
[27] = target: HIV-1 93IN905 Env (pseudovirus) (HIV-1 isolate 93IN905 (clade C))
[28] = target: HIV-1 MGRM-A-010 Env (pseudovirus) (HIV-1 isolate MGRM-A-010 (clade A))
[29] = target: HIV-1 92UG024 Env (pseudovirus) (HIV-1 isolate 92UG024 (clade D))
[30] = target: HIV-1 JRFL Env (pseudovirus) (HIV-1 isolate JRFL (clade B))
[31] = target: HIV-1 APV13 Env (pseudovirus) (HIV-1 isolate APV13 (clade B))
[32] = target: HIV-1 92TH021 Env (pseudovirus) (HIV-1 isolate 92TH021 (clade AE))

1443_C16 (PG16) (TCN-116) (antibody), sequence (VH): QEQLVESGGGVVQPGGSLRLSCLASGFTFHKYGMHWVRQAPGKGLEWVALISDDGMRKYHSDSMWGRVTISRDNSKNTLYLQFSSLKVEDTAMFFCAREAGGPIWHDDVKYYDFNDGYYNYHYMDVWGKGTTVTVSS
1443_C16 (PG16) (TCN-116) (antibody), sequence (VL): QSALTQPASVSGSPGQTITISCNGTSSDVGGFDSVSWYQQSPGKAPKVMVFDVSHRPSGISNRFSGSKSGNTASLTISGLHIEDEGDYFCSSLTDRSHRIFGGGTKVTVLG

Substance: 1496_C09 (PG9) (TCN-109) (antibody)
- neutralization IC50 [1]: 0.121 µg/mL
- neutralization IC80 [1]: 0.645 µg/mL
- neutralization IC90 [1]: 1.65 µg/mL
- neutralization IC95 [1]: 3.71 µg/mL
- neutralization IC50 [2]: 0.048 µg/mL
- neutralization IC80 [2]: 0.308 µg/mL
- neutralization IC90 [2]: 0.981 µg/mL
- neutralization IC95 [2]: 3.31 µg/mL

Substance: 1443_C16 (PG16) (TCN-116) (antibody)
- IC50 (neutralization, TZM-bl pseudovirus assay) [3]: < 0.01 µg/mL
- IC50 (ug/ml), pseudovirus neutralization, TZM-bl assay [4]: 0.006 µg/mL
- IC50 (neutralization, TZM-bl pseudovirus assay) [5]: > 25 µg/mL

Substance: VRC01 (antibody)
- IC50 [6]: 0.305 µg/mL
- IC50, pseudovirus neutralization [7]: > 50 µg/mL
- IC50, pseudovirus neutralization [8]: 0.835 µg/mL
- IC50 [9]: 1.11 µg/mL
- IC50, pseudovirus neutralization [10]: 0.124 µg/mL
- IC50, pseudovirus neutralization [11]: 0.228 µg/mL

Substance: 4877_D15 (PGT-122) (antibody)
- Neutralization by PGT-122, IC50 [12]: 1.68 µg/mL
- Neutralization by PGT-122, IC80 [12]: > 10 µg/mL
- Neutralization by PGT-122, IC90 [12]: > 10 µg/mL
- Neutralization by PGT-122, IC95 [12]: > 10 µg/mL
- Neutralization by PGT-122, IC50 (HIV-1 APV6 Env (HIV-1)): 0.0851 µg/mL
- Neutralization by PGT-122, IC80 (HIV-1 APV6 Env (HIV-1)): 0.351 µg/mL
- Neutralization by PGT-122, IC90 (HIV-1 APV6 Env (HIV-1)): 0.779 µg/mL
- Neutralization by PGT-122, IC95 (HIV-1 APV6 Env (HIV-1)): 1.55 µg/mL
- Neutralization by PGT-122, IC50 (aMLV envelope (aMLV)): > 10 µg/mL
- Neutralization by PGT-122, IC80 (aMLV envelope (aMLV)): > 10 µg/mL
- Neutralization by PGT-122, IC90 (aMLV envelope (aMLV)): > 10 µg/mL
- Neutralization by PGT-122, IC95 (aMLV envelope (aMLV)): > 10 µg/mL
- Neutralization by PGT-122, IC50 [13]: 0.0337 µg/mL
- Neutralization by PGT-122, IC80 [13]: 0.0929 µg/mL
- Neutralization by PGT-122, IC90 [13]: 0.168 µg/mL
- Neutralization by PGT-122, IC95 [13]: 0.289 µg/mL
- Neutralization by PGT-122, IC50 [14]: 0.0115 µg/mL
- Neutralization by PGT-122, IC80 [14]: 0.035 µg/mL
- Neutralization by PGT-122, IC90 [14]: 0.0674 µg/mL
- Neutralization by PGT-122, IC95 [14]: 0.125 µg/mL
- Neutralization by PGT-122, IC50 [15]: 0.0072 µg/mL
- Neutralization by PGT-122, IC80 [15]: 0.0407 µg/mL
- Neutralization by PGT-122, IC90 [15]: 0.113 µg/mL
- Neutralization by PGT-122, IC95 [15]: 0.289 µg/mL
- Neutralization by PGT-122, IC50 [16]: > 10 µg/mL
- Neutralization by PGT-122, IC80 [16]: > 10 µg/mL
- Neutralization by PGT-122, IC90 [16]: > 10 µg/mL
- Neutralization by PGT-122, IC95 [16]: > 10 µg/mL

Substance: PGV04 (antibody)
- IC50 (µg/mL), pseudovirus neutralization [17]: 0.497 µg/mL
- IC50, pseudovirus neutralization [18]: 0.145 µg/mL
- IC50 (µg/mL), pseudovirus neutralization [19]: 0.032 µg/mL
- IC50 (µg/mL), pseudovirus neutralization [20]: > 50 µg/mL
- IC50 (µg/mL), pseudovirus neutralization [21]: 0.171 µg/mL
- IC50 (µg/mL), pseudovirus neutralization [22]: 0.02 µg/mL
- IC50, pseudovirus neutralization [23]: 0.175 µg/mL

Substance: 5123_A06 (PGT-125) (antibody)
- Neutralization by PGT-125, IC50 [24]: > 10 µg/mL
- Neutralization by PGT-125, IC80 [24]: > 10 µg/mL
- Neutralization by PGT-125, IC90 [24]: > 10 µg/mL
- Neutralization by PGT-125, IC95 [24]: > 10 µg/mL
- Neutralization by PGT-125, IC50 [25]: > 10 µg/mL
- Neutralization by PGT-125, IC80 [25]: > 10 µg/mL
- Neutralization by PGT-125, IC90 [25]: > 10 µg/mL
- Neutralization by PGT-125, IC95 [25]: > 10 µg/mL
- Neutralization by PGT-125, IC50 [26]: > 10 µg/mL
- Neutralization by PGT-125, IC80 [26]: > 10 µg/mL
- Neutralization by PGT-125, IC90 [26]: > 10 µg/mL
- Neutralization by PGT-125, IC95 [26]: > 10 µg/mL
- Neutralization by PGT-125, IC50 [27]: 0.0137 µg/mL
- Neutralization by PGT-125, IC80 [27]: 0.0494 µg/mL
- Neutralization by PGT-125, IC90 [27]: 0.106 µg/mL
- Neutralization by PGT-125, IC95 [27]: 0.216 µg/mL
- Neutralization by PGT-125, IC50 [28]: 0.0055 µg/mL
- Neutralization by PGT-125, IC80 [28]: 0.024 µg/mL
- Neutralization by PGT-125, IC90 [28]: 0.0575 µg/mL
- Neutralization by PGT-125, IC95 [28]: 0.131 µg/mL
- Neutralization by PGT-125, IC50 [29]: > 10 µg/mL
- Neutralization by PGT-125, IC80 [29]: > 10 µg/mL
- Neutralization by PGT-125, IC90 [29]: > 10 µg/mL
- Neutralization by PGT-125, IC95 [29]: > 10 µg/mL
- Neutralization by PGT-125, IC50 [30]: 0.0156 µg/mL
- Neutralization by PGT-125, IC80 [30]: 0.0462 µg/mL
- Neutralization by PGT-125, IC90 [30]: 0.0873 µg/mL
- Neutralization by PGT-125, IC95 [30]: 0.157 µg/mL
- Neutralization by PGT-125, IC50 [31]: 0.0128 µg/mL
- Neutralization by PGT-125, IC80 [31]: 0.0414 µg/mL
- Neutralization by PGT-125, IC90 [31]: 0.0821 µg/mL
- Neutralization by PGT-125, IC95 [31]: 0.154 µg/mL
- Neutralization by PGT-125, IC50 [32]: 0.0066 µg/mL
- Neutralization by PGT-125, IC80 [32]: 0.0292 µg/mL
- Neutralization by PGT-125, IC90 [32]: 0.0701 µg/mL
- Neutralization by PGT-125, IC95 [32]: 0.157 µg/mL

Reference: patent US20250320281A1
